B1: GST-tagged 4th luminal domain (L4) of rat SV2C (other)
chain: FPDVIKHLQSDEYALLTRNVQKDKYANFSINFTMENQVHTGMEYDNGRFLGVKFKSVTFKDSVFKSCTFDDVTSVNTYFKNCTFIDTLFENTDFEPYKFIDSEFQNCSFLHNKTGCQITFDDDYSAY
B2: synaptotagmin I (other)
chain: MVSASHPEALAAPVTTVATLVPHNATEPASPGEGKEDAFSKLKQKFMNELHKIPLPPWALIAIAIVAVLLVVTCCFCVCKKCLFKKKNKKKGKEKGGKNAINMKDVKDLGKTMKDQALKDDDAETGLTDGEEKEEPKEEEKLGKLQYSLDYDFQNNQLLVGIIQAAELPALDMGGTSDPYVKVFLLPDKKKKFETKVHRKTLNPVFNEQFTFKVPYSELGGKTLVMAVYDFDRFSKHDIIGEFKVPMNTVDFGHVTEEWRDLQSAEKEEQEKLGDICFSLRYVPTAGKLTVVILEAKNLKKMDVGGLSDPYVKIHLMQNGKRLKKKKTTIKKNTLNPYYNESFSFEVPFEQIQKVQVVVTVLDYDKIGKNDAIGKVFVGYNSTGAELRHWSDMLANPRRPIAQWHTLQVEEEVDAMLAVKK
B3: GST-tagged 4th luminal domain (L4) of rat SV2A (other)
chain: FPDMIRHLQAVDYAARTKVFPGERVEHVTFNFTLENQIHRGGQYFNDKFIGLRLKSVSFEDSLFEECYFEDVTSSNTFFRNCTFINTVFYNTDLFEYKFVNSRLVNSTFLHNKEGCPLDVTGTGEGAY
B4: GST-tagged 4th luminal domain (L4) of rat SV2B (other)
chain: FPDMIRYFQDEEYKSKMKVFFGEHVHGATINFTMENQIHQHGKLVNDKFIKMYFKHVLFEDTFFDKCYFEDVTSTDTYFKNCTIESTTFYNTDLYKHKFIDCRFINSTFLEQKEGCHMDFEEDNDF

Tests used:
[1] = molecular target: T1, Botulinum neurotoxin E (Clostridium botulinum, UniProt Q00496 2-1251); test: pull-down with immobilised GST-L4 (8 µg), western blot
T1 sequence: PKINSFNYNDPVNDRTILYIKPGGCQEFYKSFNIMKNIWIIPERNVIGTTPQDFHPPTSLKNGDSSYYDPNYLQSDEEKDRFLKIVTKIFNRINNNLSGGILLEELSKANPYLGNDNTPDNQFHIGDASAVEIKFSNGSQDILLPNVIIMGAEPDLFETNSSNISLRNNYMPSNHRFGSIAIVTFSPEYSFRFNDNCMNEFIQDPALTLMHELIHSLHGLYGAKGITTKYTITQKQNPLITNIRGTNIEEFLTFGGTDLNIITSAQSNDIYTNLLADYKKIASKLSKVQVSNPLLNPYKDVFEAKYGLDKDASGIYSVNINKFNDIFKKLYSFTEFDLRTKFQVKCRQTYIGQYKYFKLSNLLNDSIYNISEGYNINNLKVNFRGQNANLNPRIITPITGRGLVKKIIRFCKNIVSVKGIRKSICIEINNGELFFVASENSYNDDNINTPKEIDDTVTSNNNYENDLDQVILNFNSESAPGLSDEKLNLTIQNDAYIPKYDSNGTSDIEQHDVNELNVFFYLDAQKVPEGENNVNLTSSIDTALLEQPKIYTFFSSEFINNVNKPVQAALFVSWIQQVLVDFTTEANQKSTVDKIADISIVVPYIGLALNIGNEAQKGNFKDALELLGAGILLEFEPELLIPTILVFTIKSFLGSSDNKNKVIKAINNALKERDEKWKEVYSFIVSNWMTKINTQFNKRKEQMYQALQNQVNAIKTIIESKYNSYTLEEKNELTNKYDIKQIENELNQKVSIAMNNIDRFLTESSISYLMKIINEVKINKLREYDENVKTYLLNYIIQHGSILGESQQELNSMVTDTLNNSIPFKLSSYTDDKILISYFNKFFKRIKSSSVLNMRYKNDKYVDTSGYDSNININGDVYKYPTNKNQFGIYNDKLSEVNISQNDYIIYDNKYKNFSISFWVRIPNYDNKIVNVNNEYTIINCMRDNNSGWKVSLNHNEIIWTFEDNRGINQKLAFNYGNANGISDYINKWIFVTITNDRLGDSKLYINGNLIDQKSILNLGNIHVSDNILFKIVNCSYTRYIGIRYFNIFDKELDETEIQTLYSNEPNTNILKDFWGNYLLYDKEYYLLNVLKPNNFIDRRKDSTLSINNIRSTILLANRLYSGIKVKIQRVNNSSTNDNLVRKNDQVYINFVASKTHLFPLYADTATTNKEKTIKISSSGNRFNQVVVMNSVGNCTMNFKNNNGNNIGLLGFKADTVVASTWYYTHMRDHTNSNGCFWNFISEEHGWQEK

[2] = molecular target: T2, Botulinum neurotoxin B (Clostridium botulinum, UniProt P10844 2-1291); test: as above
T2 sequence: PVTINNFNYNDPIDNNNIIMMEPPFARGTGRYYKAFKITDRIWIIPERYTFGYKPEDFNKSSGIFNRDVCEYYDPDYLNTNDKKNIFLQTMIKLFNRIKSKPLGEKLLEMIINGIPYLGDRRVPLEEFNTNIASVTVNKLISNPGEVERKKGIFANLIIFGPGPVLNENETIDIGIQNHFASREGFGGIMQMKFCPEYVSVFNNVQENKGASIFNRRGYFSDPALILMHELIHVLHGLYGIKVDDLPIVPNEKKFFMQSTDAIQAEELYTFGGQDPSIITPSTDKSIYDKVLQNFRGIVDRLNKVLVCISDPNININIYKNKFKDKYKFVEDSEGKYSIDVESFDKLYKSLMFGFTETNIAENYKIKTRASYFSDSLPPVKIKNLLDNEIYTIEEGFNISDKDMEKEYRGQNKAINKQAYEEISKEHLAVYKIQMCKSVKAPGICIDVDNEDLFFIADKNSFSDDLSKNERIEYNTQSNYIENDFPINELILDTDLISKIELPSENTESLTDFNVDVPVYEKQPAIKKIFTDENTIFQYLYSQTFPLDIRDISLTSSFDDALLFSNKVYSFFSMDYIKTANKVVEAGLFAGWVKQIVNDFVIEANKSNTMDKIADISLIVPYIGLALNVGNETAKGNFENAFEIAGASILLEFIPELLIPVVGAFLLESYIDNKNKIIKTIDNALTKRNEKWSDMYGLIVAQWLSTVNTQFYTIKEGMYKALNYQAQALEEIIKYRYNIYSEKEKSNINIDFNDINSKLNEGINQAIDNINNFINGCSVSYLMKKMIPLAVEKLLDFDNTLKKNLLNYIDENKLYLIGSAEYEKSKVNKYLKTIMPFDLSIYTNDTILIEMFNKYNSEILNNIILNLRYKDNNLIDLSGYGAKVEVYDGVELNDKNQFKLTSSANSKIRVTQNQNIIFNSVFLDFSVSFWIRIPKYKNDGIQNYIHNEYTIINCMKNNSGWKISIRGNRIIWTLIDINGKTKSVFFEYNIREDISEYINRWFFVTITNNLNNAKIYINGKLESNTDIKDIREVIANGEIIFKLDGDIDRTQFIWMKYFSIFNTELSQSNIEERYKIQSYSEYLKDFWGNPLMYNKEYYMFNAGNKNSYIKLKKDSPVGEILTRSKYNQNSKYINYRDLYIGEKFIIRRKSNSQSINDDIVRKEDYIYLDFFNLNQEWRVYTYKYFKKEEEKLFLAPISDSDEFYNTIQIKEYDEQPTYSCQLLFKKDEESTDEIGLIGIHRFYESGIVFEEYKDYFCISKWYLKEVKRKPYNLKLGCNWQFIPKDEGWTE

[3] = molecular target: Botulinum neurotoxin A (Clostridium botulinum, UniProt P0DPI1 2-1296); test: immunostaining of transfected SV2A/B double knockout hippocampal neurons

Binder	binding result [1]	binding result [2]	binding result [3]
B1	no binding (tested: 100 nM)	no binding (tested: 100 nM)	–
B2	–	–	no binding (tested: 10 nM)
B3	no binding (tested: 100 nM)	no binding (tested: 100 nM)	–
B4	no binding (tested: 100 nM)	no binding (tested: 100 nM)	–
